# Where “and” joins values, the source holds several entries; their conditions need not be identical. Identical values can stand only once.
# B1: Chitosanase, P33665 (parent)
# chain: MHSQHRTARIALAVVLTAIPASLATAGVGYASTQASTAVKAGAGLDDPHKKEIAMELVSSAENSSLDWKAQYKYIEDIGDGRGYTGGIIGFCSGTGDMLELVQHYTDLEPGNILAKYLPALKKVNGSASHSGLGTPFTKDWATAAKDTVFQQAQNDERDRVYFDPAVSQAKADGLRALGQFAYYDAIVMHGPGNDPTSFGGIRKTAMKKARTPAQGGDETTYLNAFLDARKAAMLTEAAHDDTSRVDTEQRVFLKAGNLDLNPPLKWKTYGDPYVINS
# Variants of: B1
# Conditions: Streptomyces sp. (strain N174); pH 7; 42.7 °C; Thermal; CD; sodium phosphate 50 mM; transition: 3; reversible: yes(79%); structure 1CHK; whole UniProt chain shown
row,Variant,ddG of mutation (higher = less stable)
1,MHSQHRTARIALAVVLTAIPASLATAGVGYASTQASTAVKAGAGLDDPHKKEIAMELVSSAENSSLDWKAQYKYIEDIGDGRGYTGGIIGFCSGTGDMLELVQHYTDLEPGNILAKYLPALKKVNGSASHSGLGTPFTKDWATAAKDTVFQQAQNDERDRVYFDPAVSQAKADGLRALGQFAYYDAIVMHGPGNDPTSFGGIRKTAMKKARTPAQGGDETTYLNAFLDARKAAMLTEAAHDDTSRVDTEQRVFLKAGNLDLNPPLKFKTYGDPYVINS [W267F],2.97 kcal/mol

# Same assay, conditions: Streptomyces sp. (strain N174); pH 7; 43.2 °C; Thermal; Fluorescence; sodium phosphate 50 mM; reversible: yes(81%); structure 1CHK; whole UniProt chain shown
row,Variant,ddG of mutation (higher = less stable)
1,MHSQHRTARIALAVVLTAIPASLATAGVGYASTQASTAVKAGAGLDDPHKKEIAMELVSSAENSSLDWKAQYKYIEDIGDGRGYTGGIIGFCSGTGDMLELVQHYTDLEPGNILAKYLPALKKVNGSASHSGLGTPFTKDWATAAKDTVFQQAQNDERDRVYFDPAVSQAKADGLRALGQFAYYDAIVMHGPGNDPTSFGGIRKTAMKKARTPAQGGDETTYLNAFLDARKAAMLTEAAHDDTSRVDTEQRVFLKAGNLDLNPPLKFKTYGDPYVINS [W267F],2.51 kcal/mol

# Same assay, conditions: Streptomyces sp. (strain N174); pH 7; 52.2 °C; Thermal; CD; sodium phosphate 50 mM; transition: 3; reversible: yes(79%); structure 1CHK; whole UniProt chain shown
row,Variant,ddG of mutation (higher = less stable)
1,MHSQHRTARIALAVVLTAIPASLATAGVGYASTQASTAVKAGAGLDDPHKKEIAMELVSSAENSSLDWKAQYKYIEDIGDGRGYTGGIIGFCSGTGDMLELVQHYTDLEPGNILAKYLPALKKVNGSASHSGLGTPFTKDWATAAKDTVFQQAQNDERDRVYFDPAVSQAKADGLRALGQFAYYDAIVMHGPGNDPTSFGGIRKTAMKKARTPAQGGDETTYLNAFLDARKAAMLTEAAHDDTSRVDTEQRVFLKAGNLDLNPPLKFKTYGDPYVINS [W267F],1.31 kcal/mol

# Same assay, conditions: Streptomyces sp. (strain N174); pH 7; Thermal; CD; sodium phosphate 50 mM; transition: 3; reversible: yes(79%); structure 1CHK; whole UniProt chain shown
Variant,"change of melting temperature, mutant - wild type (higher = more stable)",unfolding enthalpy (van 't Hoff)
MHSQHRTARIALAVVLTAIPASLATAGVGYASTQASTAVKAGAGLDDPHKKEIAMELVSSAENSSLDWKAQYKYIEDIGDGRGYTGGIIGFCSGTGDMLELVQHYTDLEPGNILAKYLPALKKVNGSASHSGLGTPFTKDWATAAKDTVFQQAQNDERDRVYFDPAVSQAKADGLRALGQFAYYDAIVMHGPGNDPTSFGGIRKTAMKKARTPAQGGDETTYLNAFLDARKAAMLTEAAHDDTSRVDTEQRVFLKAGNLDLNPPLKFKTYGDPYVINS [W267F],-6.8 °C and -6.4 °C,135 kcal/mol and 65 kcal/mol

# Same assay, conditions: Streptomyces sp. (strain N174); pH 7; Thermal; Fluorescence; sodium phosphate 50 mM; reversible: yes(81%); structure 1CHK; whole UniProt chain shown
Variant,Tm,"change of melting temperature, mutant - wild type (higher = more stable)",unfolding enthalpy (van 't Hoff)
MHSQHRTARIALAVVLTAIPASLATAGVGYASTQASTAVKAGAGLDDPHKKEIAMELVSSAENSSLDWKAQYKYIEDIGDGRGYTGGIIGFCSGTGDMLELVQHYTDLEPGNILAKYLPALKKVNGSASHSGLGTPFTKDWATAAKDTVFQQAQNDERDRVYFDPAVSQAKADGLRALGQFAYYDAIVMHGPGNDPTSFGGIRKTAMKKARTPAQGGDETTYLNAFLDARKAAMLTEAAHDDTSRVDTEQRVFLKAGNLDLNPPLKFKTYGDPYVINS [W267F],37.3 °C,-5.9 °C,132 kcal/mol

# Same assay, conditions: Streptomyces sp. (strain N174); pH 7; 42.7 °C; Thermal; CD; sodium phosphate 50 mM; transition: 3; reversible: yes(68%); structure 1CHK; whole UniProt chain shown
row,Variant,ddG of mutation (higher = less stable)
1,MHSQHRTARIALAVVLTAIPASLATAGVGYASTQASTAVKAGAGLDDPHKKEIAMELVSSAENSSLDFKAQYKYIEDIGDGRGYTGGIIGFCSGTGDMLELVQHYTDLEPGNILAKYLPALKKVNGSASHSGLGTPFTKDFATAAKDTVFQQAQNDERDRVYFDPAVSQAKADGLRALGQFAYYDAIVMHGPGNDPTSFGGIRKTAMKKARTPAQGGDETTYLNAFLDARKAAMLTEAAHDDTSRVDTEQRVFLKAGNLDLNPPLKWKTYGDPYVINS [W68F W141F],5.8 kcal/mol

# Same assay, conditions: Streptomyces sp. (strain N174); pH 7; 43.2 °C; Thermal; Fluorescence; sodium phosphate 50 mM; reversible: yes(80%); structure 1CHK; whole UniProt chain shown
row,Variant,ddG of mutation (higher = less stable)
1,MHSQHRTARIALAVVLTAIPASLATAGVGYASTQASTAVKAGAGLDDPHKKEIAMELVSSAENSSLDFKAQYKYIEDIGDGRGYTGGIIGFCSGTGDMLELVQHYTDLEPGNILAKYLPALKKVNGSASHSGLGTPFTKDFATAAKDTVFQQAQNDERDRVYFDPAVSQAKADGLRALGQFAYYDAIVMHGPGNDPTSFGGIRKTAMKKARTPAQGGDETTYLNAFLDARKAAMLTEAAHDDTSRVDTEQRVFLKAGNLDLNPPLKWKTYGDPYVINS [W68F W141F],8.03 kcal/mol

# Same assay, conditions: Streptomyces sp. (strain N174); pH 7; 52.2 °C; Thermal; CD; sodium phosphate 50 mM; transition: 3; reversible: yes(68%); structure 1CHK; whole UniProt chain shown
row,Variant,ddG of mutation (higher = less stable)
1,MHSQHRTARIALAVVLTAIPASLATAGVGYASTQASTAVKAGAGLDDPHKKEIAMELVSSAENSSLDFKAQYKYIEDIGDGRGYTGGIIGFCSGTGDMLELVQHYTDLEPGNILAKYLPALKKVNGSASHSGLGTPFTKDFATAAKDTVFQQAQNDERDRVYFDPAVSQAKADGLRALGQFAYYDAIVMHGPGNDPTSFGGIRKTAMKKARTPAQGGDETTYLNAFLDARKAAMLTEAAHDDTSRVDTEQRVFLKAGNLDLNPPLKWKTYGDPYVINS [W68F W141F],1.51 kcal/mol

# Same assay, conditions: Streptomyces sp. (strain N174); pH 7; Thermal; CD; sodium phosphate 50 mM; transition: 3; reversible: yes(68%); structure 1CHK; whole UniProt chain shown
Variant,"change of melting temperature, mutant - wild type (higher = more stable)",unfolding enthalpy (van 't Hoff)
MHSQHRTARIALAVVLTAIPASLATAGVGYASTQASTAVKAGAGLDDPHKKEIAMELVSSAENSSLDFKAQYKYIEDIGDGRGYTGGIIGFCSGTGDMLELVQHYTDLEPGNILAKYLPALKKVNGSASHSGLGTPFTKDFATAAKDTVFQQAQNDERDRVYFDPAVSQAKADGLRALGQFAYYDAIVMHGPGNDPTSFGGIRKTAMKKARTPAQGGDETTYLNAFLDARKAAMLTEAAHDDTSRVDTEQRVFLKAGNLDLNPPLKWKTYGDPYVINS [W68F W141F],-11.4 °C and -8 °C,155 kcal/mol and 60 kcal/mol

# Same assay, conditions: Streptomyces sp. (strain N174); pH 7; Thermal; Fluorescence; sodium phosphate 50 mM; reversible: yes(80%); structure 1CHK; whole UniProt chain shown
Variant,Tm,"change of melting temperature, mutant - wild type (higher = more stable)",unfolding enthalpy (van 't Hoff)
MHSQHRTARIALAVVLTAIPASLATAGVGYASTQASTAVKAGAGLDDPHKKEIAMELVSSAENSSLDFKAQYKYIEDIGDGRGYTGGIIGFCSGTGDMLELVQHYTDLEPGNILAKYLPALKKVNGSASHSGLGTPFTKDFATAAKDTVFQQAQNDERDRVYFDPAVSQAKADGLRALGQFAYYDAIVMHGPGNDPTSFGGIRKTAMKKARTPAQGGDETTYLNAFLDARKAAMLTEAAHDDTSRVDTEQRVFLKAGNLDLNPPLKWKTYGDPYVINS [W68F W141F],31.2 °C,-12 °C,204 kcal/mol
